Data reported in paper PMC10449495.

What was measured:
[1] = target: IpaB (invasion plasmid antigen B), affinity tag-free recombinant; test: assembly with LPS, anion-exchange purification of the complex, SDS-PAGE gel densitometry; S. flexneri 6 LPS, 2x (1.12 w LPS/w protein); 8 uM IpaC + 1 uM IpaB in 5.1 M urea, 37 C 2 h; Q Sepharose HP, eluted at 50% Buffer B; %Band ratio
[2] = target: IpaB (invasion plasmid antigen B), affinity tag-free recombinant; test: assembly with LPS, anion-exchange purification of the complex, SDS-PAGE gel densitometry; S. flexneri 6 LPS, 4x (2.24 w LPS/w protein); 8 uM IpaC + 1 uM IpaB in 5.1 M urea, 37 C 2 h; Q Sepharose HP, eluted at 50% Buffer B; %Band ratio
[3] = target: IpaB (invasion plasmid antigen B), affinity tag-free recombinant; test: assembly with LPS, anion-exchange purification of the complex, SDS-PAGE gel densitometry; S. flexneri 2a LPS, 1x (0.56 w LPS/w protein); 8 uM IpaC + 1 uM IpaB in 5.1 M urea, 37 C 2 h; Q Sepharose HP, eluted at 50% Buffer B; %Band of full-size IpaC divided by %Band of full-size IpaB
[4] = target: IpaB (invasion plasmid antigen B), affinity tag-free recombinant; test: assembly with LPS, anion-exchange purification of the complex, SDS-PAGE gel densitometry; S. sonnei LPS, 2x (1.12 w LPS/w protein); 8 uM IpaC + 1 uM IpaB in 5.1 M urea, 37 C 2 h; Q Sepharose HP, eluted at 50% Buffer B; %Band ratio
[5] = target: IpaB (invasion plasmid antigen B), affinity tag-free recombinant; test: assembly with LPS, anion-exchange purification of the complex, SDS-PAGE gel densitometry; S. flexneri 2a LPS, 8x (4.48 w LPS/w protein); 8 uM IpaC + 1 uM IpaB in 5.1 M urea, 37 C 2 h; Q Sepharose HP, eluted at 50% Buffer B; %Band ratio
[6] = target: IpaB (invasion plasmid antigen B), affinity tag-free recombinant; test: assembly with LPS, anion-exchange purification of the complex, SDS-PAGE gel densitometry; S. sonnei LPS, 8x (4.48 w LPS/w protein); 8 uM IpaC + 1 uM IpaB in 5.1 M urea, 37 C 2 h; Q Sepharose HP, eluted at 50% Buffer B; %Band ratio
[7] = target: IpaB (invasion plasmid antigen B), affinity tag-free recombinant; test: assembly with LPS, anion-exchange purification of the complex, SDS-PAGE gel densitometry; S. flexneri 3a LPS, 2x (1.12 w LPS/w protein); 8 uM IpaC + 1 uM IpaB in 5.1 M urea, 37 C 2 h; Q Sepharose HP, eluted at 50% Buffer B; %Band ratio
[8] = target: IpaB (invasion plasmid antigen B), affinity tag-free recombinant; test: assembly with LPS, anion-exchange purification of the complex, SDS-PAGE gel densitometry; S. flexneri 3a LPS, 8x (4.48 w LPS/w protein); 8 uM IpaC + 1 uM IpaB in 5.1 M urea, 37 C 2 h; Q Sepharose HP, eluted at 50% Buffer B; %Band ratio
[9] = target: IpaB (invasion plasmid antigen B), affinity tag-free recombinant; test: assembly with LPS, anion-exchange purification of the complex, SDS-PAGE gel densitometry; S. sonnei LPS, 1x (0.56 w LPS/w protein); 8 uM IpaC + 1 uM IpaB in 5.1 M urea, 37 C 2 h; Q Sepharose HP, eluted at 50% Buffer B; %Band ratio
[10] = target: IpaB (invasion plasmid antigen B), affinity tag-free recombinant; test: assembly with LPS, anion-exchange purification of the complex, SDS-PAGE gel densitometry; S. flexneri 6 LPS, 1x (0.56 w LPS/w protein); 8 uM IpaC + 1 uM IpaB in 5.1 M urea, 37 C 2 h; Q Sepharose HP, eluted at 50% Buffer B; %Band ratio
[11] = target: IpaB (invasion plasmid antigen B), affinity tag-free recombinant; test: assembly with LPS, anion-exchange purification of the complex, SDS-PAGE gel densitometry; S. flexneri 6 LPS, 8x (4.48 w LPS/w protein); 8 uM IpaC + 1 uM IpaB in 5.1 M urea, 37 C 2 h; Q Sepharose HP, eluted at 50% Buffer B; %Band ratio
[12] = target: IpaB (invasion plasmid antigen B), affinity tag-free recombinant; test: assembly with LPS, anion-exchange purification of the complex, SDS-PAGE gel densitometry; S. flexneri 2a LPS, 2x (1.12 w LPS/w protein); 8 uM IpaC + 1 uM IpaB in 5.1 M urea, 37 C 2 h; Q Sepharose HP, eluted at 50% Buffer B; %Band ratio
[13] = target: IpaB (invasion plasmid antigen B), affinity tag-free recombinant; test: assembly with LPS, anion-exchange purification of the complex, SDS-PAGE gel densitometry; S. flexneri 3a LPS, 4x (2.24 w LPS/w protein); 8 uM IpaC + 1 uM IpaB in 5.1 M urea, 37 C 2 h; Q Sepharose HP, eluted at 50% Buffer B; %Band ratio
[14] = target: IpaB (invasion plasmid antigen B), affinity tag-free recombinant; test: assembly with LPS, anion-exchange purification of the complex, SDS-PAGE gel densitometry; S. flexneri 3a LPS, 1x (0.56 w LPS/w protein); 8 uM IpaC + 1 uM IpaB in 5.1 M urea, 37 C 2 h; Q Sepharose HP, eluted at 50% Buffer B; %Band ratio
[15] = target: IpaB (invasion plasmid antigen B), affinity tag-free recombinant; test: assembly with LPS, anion-exchange purification of the complex, SDS-PAGE gel densitometry; S. sonnei LPS, 4x (2.24 w LPS/w protein); 8 uM IpaC + 1 uM IpaB in 5.1 M urea, 37 C 2 h; Q Sepharose HP, eluted at 50% Buffer B; %Band ratio
[16] = target: IpaB (invasion plasmid antigen B), affinity tag-free recombinant; test: assembly with LPS, anion-exchange purification of the complex, SDS-PAGE gel densitometry; S. flexneri 2a LPS, 4x (2.24 w LPS/w protein); 8 uM IpaC + 1 uM IpaB in 5.1 M urea, 37 C 2 h; Q Sepharose HP, eluted at 50% Buffer B; %Band ratio

B1: IpaC (invasion plasmid antigen C), affinity tag-free recombinant (natural protein)
chain: MEIQNTKPTQTLYTDISTKQTQSSSETQKSQNYQQIAAHIPLNVGKNPVLTTTLNDDQLLKLSEQVQHDSEIIARLTDKKMKDLSEMSHTLTPENTLDISSLSSNAVSLIISVAVLLSALRTAETKLGSQLSLIAFDATKSAAENIVRQGLAALSSSITGAVTQVGITGIGAKKTHSGISDQKGALRKNLATAQSLEKELAGSKLGLNKQIDTNITSPQTNSSTKFLGKNKLAPDNISLSTEHKTSLSSPDISLQDKIDTQRRTYELNTLSAQQKQNIGRATMETSAVAGNISTSGGRYASALEEEEQLISQASSKQAEEASQVSKEASQATNQLIQKLLNIIDSINQSKNSAASQIAGNIRA
With B1 the IpaC:IpaB ratio in the complex with LPS (gel densitometry) [1] was 4.1 IpaC:IpaB, the IpaC:IpaB ratio in the complex with LPS (gel densitometry) [2] was 4 IpaC:IpaB and the IpaC:IpaB ratio in the complex with LPS (gel densitometry) [3] was 3.8 IpaC:IpaB. For the same binder, the IpaC:IpaB ratio in the complex with LPS (gel densitometry) [4] was 5.6 IpaC:IpaB, the IpaC:IpaB ratio in the complex with LPS (gel densitometry) [5] was 9.4 IpaC:IpaB and the IpaC:IpaB ratio in the complex with LPS (gel densitometry) [6] was 7.2 IpaC:IpaB. The IpaC:IpaB ratio in the complex with LPS (gel densitometry) [7] was 3.8 IpaC:IpaB, the IpaC:IpaB ratio in the complex with LPS (gel densitometry) [8] was 5.8 IpaC:IpaB and the IpaC:IpaB ratio in the complex with LPS (gel densitometry) [9] was 2.6 IpaC:IpaB. For the same binder, the IpaC:IpaB ratio in the complex with LPS (gel densitometry) [10] was 2.1 IpaC:IpaB, the IpaC:IpaB ratio in the complex with LPS (gel densitometry) [11] was 3.9 IpaC:IpaB and the IpaC:IpaB ratio in the complex with LPS (gel densitometry) [12] was 6.9 IpaC:IpaB. The IpaC:IpaB ratio in the complex with LPS (gel densitometry) [13] was 5.8 IpaC:IpaB, the IpaC:IpaB ratio in the complex with LPS (gel densitometry) [14] was 2.5 IpaC:IpaB and the IpaC:IpaB ratio in the complex with LPS (gel densitometry) [15] was 9.4 IpaC:IpaB. The IpaC:IpaB ratio in the complex with LPS (gel densitometry) [16] was 7.8 IpaC:IpaB.
